# Test: stability of the structural color on a baked biscuit at high temperature
# Format: physicochemical
# Conditions: 130-150° C.
# Description: At block 902, a predetermined solution mixed with the submicron particles prepared from the predetermined material and the cuttlefish juice submicron particles is applied to a target object. The target object, for example, is food such as, but not limited to, various pastries and candies. For example, a mixture solution of the TiO2 submicron particles and cuttlefish juice submicron particles are added dropwise onto a surface of a biscuit.
# At block 904, the target object is baked or frozen to evaporate or sublimate the predetermined solution such that the submicron particles prepared from the predetermined material and the cuttlefish juice submicron particles can be self-assembled into the amorphous photonic crystal structure on the target object, where the baking temperature is less than or equal to 250° C.
# For example, when baked, the biscuit having drops of the mixture solution added onto the surface is dried with the increasing baking temperature. In the case, the submicron particles prepared from the predetermined material and the cuttlefish juice submicron particles are self-assembled to generate the structural color of the amorphous photonic crystal structure. The structural color is stable in the baked state at a high temperature (130-150° C.), and the legacy phycocyanin will fade at such high temperature. […]
substance,measurement,value
phycocyanin,color stability in the baked state,will fade

# From patent US20220403174A1, “METHOD FOR PREPARING COLORANT HAVING TARGET COLOR AND COLORANT” (Fudan University, priority 2021, published 2022)
